Experimental findings from paper PMC7485968 (2020) are described below.

Test [1] deals with T1, His-tagged ERG (Homo sapiens (Human), UniProt P11308).
T1 chain: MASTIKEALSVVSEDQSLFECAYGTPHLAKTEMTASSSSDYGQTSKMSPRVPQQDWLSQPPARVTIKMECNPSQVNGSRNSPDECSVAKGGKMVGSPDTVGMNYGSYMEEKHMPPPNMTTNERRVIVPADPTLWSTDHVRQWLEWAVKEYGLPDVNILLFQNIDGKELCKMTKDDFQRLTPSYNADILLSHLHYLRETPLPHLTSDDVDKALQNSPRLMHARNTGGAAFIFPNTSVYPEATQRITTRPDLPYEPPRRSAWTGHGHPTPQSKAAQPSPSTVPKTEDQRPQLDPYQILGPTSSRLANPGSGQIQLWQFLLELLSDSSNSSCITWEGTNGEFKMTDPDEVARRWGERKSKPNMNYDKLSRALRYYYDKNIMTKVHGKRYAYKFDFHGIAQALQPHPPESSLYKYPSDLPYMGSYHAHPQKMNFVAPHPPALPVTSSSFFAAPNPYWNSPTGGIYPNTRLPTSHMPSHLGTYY
As to the kind of experiment: His-tag pull-down; AlphaScreen.

The target in test [2] is T1, His-tagged ERG. As to the kind of experiment: His-tag pull-down.

B1: FLAG-GST-EWS 1-355aa (protein)
chain: MASTDYSTYSQAAAQQGYSAYTAQPTQGYAQTTQAYGQQSYGTYGQPTDVSYTQAQTTATYGQTAYATSYGQPPTGYTTPTAPQAYSQPVQGYGTGAYDTTTATVTTTQASYAAQSAYGTQPAYPAYGQQPAATAPTRPQDGNKPTETSQPQSSTGGYNQPSLGYGQSNYSYPQVPGSYPMQPVTAPPSYPPTSYSSTQPTSYDQSSYSQQNTYGQPSSYGQQSSYGQQSSYGQQPPTSYPPQTGSYSQAPSQYSQQSSSYGQQSSFRQDHPSSMGVYGQESGGFSGPGENRSMSGPDNRGRGRGGFDRGGMSRGGRGGGRGGMGSAGERGGFNKPGGPMDEGPDLDLGPPVDPD
Take B1: the binding result in the test with His-tagged ERG [1] is “binds”.

B2: FLAG-GST-EWS 459-656aa (protein)
chain: PPREGRGMPPPLRGGPGGPGGPGGPMGRMGGRGGDRGGFPPRGPRGSRGNPSGGGNVQHRAGDWQCPNPGCGNQNFAWRTECNQCKAPKPEGFLPPPFPPPGGDRGRGGPGGMRGGRGGLMDRGGPGGMFRGGRGGDRGGFRGGRGMDRGGFGGGRRGGPGGPPGPLMEQMGGRRGGRGGPGKMDKGEHRQERRDRPY
For the molecule B2, the binding result with His-tagged ERG [2] is on record as “no binding”.
